# Laboratory results as given in the nanobody polyreactivity screen of Harvey et al. (2022).
# Assay: yeast display, Sf9 membrane polyspecificity reagent, FACS + sequencing; frameworks hold sequencing errors
# In short: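 Galactose-induced (36–48 hours) yeast carrying a synthetic nanobody display library were exposed to 10% biotinylated, detergent-solubilized Sf9 membrane reagent at 4 °C for 1 hour. FACS followed streptavidin microbead enrichment, using low and high (top ~1%) gates for expression (anti-HA) and reagent binding (streptavidin). Colony PCR, MiSeq 2 × 250 sequencing and CDR-length filtering followed. Labels for polyreactivity reflect the gate of origin.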
row,Sequence,polyreactivity (PSR sort gate)
1,QVQLVESGGGLVQAGGSLRISCAASGNIFDIYAMGWYRQAPGKERELVAAITSGVRTYYADSVKGRFTISRDNAKNTVYLQMNSLKPEDTSVYYCNAVWRRSHAYGYWGQGTQVTVSS,low polyreactivity
2,QVQLVESGGGLVQAGGSLRISCAASGNIFDRYAMGWYRQAPGKEMELVAGITWSGGSTYYADSVKGRFTISRDNAKNTVYLQMNSLKPEDTAVYYCAKDPHGSDFGYWGQGTQVTVSS,low polyreactivity
3,QVQLVESGGGLVQAGGSLRISCAASGNIFGVYAMGWYRQAPGKERELVATITTGGSTYYADSVKGRFTISRDNAKNTVYLQMNSLKPEDTAVYYCAADVGGGNYVYYGNDYDDGYWGQGTQVTVSS,low polyreactivity
4,QVQLVESGGGLVQAGGSLRISCAASGRIFGDNGMGWYSQAPGKERELVTYADSVKGRFTISRDNAKNTVYLQMNSLKPEDTAVYYCYKDPPRFSGLDENYWGQGSQVTVSS,low polyreactivity
5,QVQLVESGGGLVQAGGSLRISCAASGRIFGINSMGWYRQAPAKERELVAAMSRGGTTNYADSVKGRFTISRDNAKNTVYLQMNSLKPEDTAVYYCNAVGFYAPNTFDYWGQGTQVTVSS,high polyreactivity
6,QVQLVESGGGLVQAGGSLRISCAASGRIFRVYAMGWYRQAPGKERELVAAISYSGGRTFYADSVKGRFTNSRDNAKNTVYLQMNSLKPEDTAVYYCAATSYSTQALPPFDYWGQGTQVTVSS,low polyreactivity
7,QVQLVESGGGLVQAGGSLRISCAASGRTFGPNAMGWYIKAPGKERELVAAIRYSGGSTYYADSVKGRFTISRDKAKNTVYLQMNSLKPEDTAVYYCAADYVSYVGERGTLYVRYDYWGQGTQVTVSS,high polyreactivity
8,QVQLVESGGGLVQAGGSLRISCAASGRTFGPYAMGWYIQAPGKEREFVAAISYSGGSTYYADSVKGRFTISRDNAKNTVYLQMNSLKPEDTAVYYCAVDIDSNSGTRDYWGQGTQVTVSS,low polyreactivity
9,QVQLVESGGGLVQAGGSLRISCAASGRTFRRYEMGWYREAPGKERELVASISSSAGSTYYADSVKGRFTISRDNAKNTVYFQMNSLKPEDTAVYYCAFVPTVYARSRYGYWGQGTQVTVSS,high polyreactivity
10,QVQLVESGGGLVQAGGSLRISCAASGRTFYDNTMGWYRQAPGKERELVAAINWSGTRTYYADSVKARFTISRDNAKNTVYLQMNSLKPEDTAVYYCAADGPFRRTYGYWGLGTQVTVSS,low polyreactivity
11,QVQLVESGGGLVQAGGSLRISCAASGRTVAIYAMGWYIKAPGKEREFVAAISWSGGDTYYADSVKGRFTISRDNAKNTVYLQMNSLKPVDPAVYYCAARDNDYEGRDLQYELDYWGQGTQVTVSS,low polyreactivity
12,QVQLVESGGGLVQAGGSLRISCAASGRTVWNTLGWYRQAPGKERELVAAISYSGGTTYYADSVKGRFTISRDNAKNTVYLQMNSLNPEDTAVYYCAAVRVLRGVKYNYWGQGTEVTVSS,high polyreactivity
13,QVQLVESGGGLVQAGGSLRISCAASGSIFASNTMGWYRQARGTERELVAGITKIGSSTYYADSVTGRFTISRDNAKNTVYLKMNSLKPEDTAVYYCNAYGPNIYSSRYDYWGQGTQVTVSS,low polyreactivity
14,QVQLVESGGGLVQAGGSLRISCAASGSIFDYYAMGWYIQAPGKERELVAAISWSGGSTYYADSVKGRFTISRDNAKNTVYLQMNSLKPVDTAVYYCAAEYYGGEFDYWGQGTQVTVSS,low polyreactivity
15,QVQLVESGGGLVQAGGSLRISCAASGSIFGYYAMGWYRQAPGKERELVAVITWNTGNTYYADSVKGRFTISRDNAKNTVYLQMNSLKPEDNAVYYCAADQTGWGDTYDYWGQGTQVTVSS,low polyreactivity
16,QVQLVESGGGLVQAGGSLRISCAASGSIFLYNDMGWYRQAPGKERELVAAITSTGNTNYADSVKGRFTISRDNAKNTVYLQMNSLNRKRPRSITALNVSCTSVVVGYDYWGQGTQVTVSS,low polyreactivity
